Assay results taken from patent US5922541.

Tests used:
human neutrophils = experiment: competition of 125I-IL-8 by unlabelled IL-8 on human neutrophils, Scatchard analysis
[1] = target: human IL-8 type A receptor (IL8R-A), encoded by clone pRK5B.il8r1.1 (human); experiment: competition of 125I-IL-8 by unlabelled IL-8 on COS cells transfected with pRK5B.il8r1.1, Scatchard analysis

- Kd (human neutrophils): 1.1 nM
- Kd [1]: 3.6 nM
Substance: recombinant human IL-8 (72 amino acid form, made in E. coli) (from UniProt P10145) (ligand)
